Test results: US20220040304A1, “A COMPOSITION FOR CANCER CELL DEATH AND ITS USE” (Industry-University Cooperation Foundation Hanyang …, priority 2018, published 2022)

B1: KR: first protein KillerRed, ROS-generating protein (superoxide), expressed from pRSET-KillerRed, 31 kDa (protein)
chain: MRGSHHHHHHGMASMTGGQQMGRDLYDDDDKDPMLCCMRRTKQVEKNDEDQKISEGGPALFQSDMTFKIFIDGEVNGQKFTIVADGSSKFPHGDFNVHAVCETGKLPMSWKPICHLIQYGEPFFARYPDGISHFAQECFPEGLSIDRTVRFENDGTMTSHHTYELDDTCVVSRITVNCDGFQPDGPIMRDQLVDILPNETHMFPHGPNAVRQLAFIGFTTADGGLMMGHFDSKMTFNGSRAIEIPGPHFVTIITKQMRDTSDKRDHVCQREVAYAHSVPRITSAIGSDED
modifications: pRSET-KillerRed
notes: first protein KillerRed, ROS-generating protein (superoxide), expressed from pRSET-KillerRed, 31 kDa
B2: RLuc8.6-KR-LP: fusion protein of RLuc8.6, KillerRed and lead peptide WLEAAYQRFL, 71 kDa (protein)
chain: MRGSHHHHHHGMASMTGGQQMGRDLYDDDDKDPMASKVYDPEQRKRMITGPQWWARCKQMNVLDSFINYYDSEKHAENAVIFLHGNATSSYLWRHVVPHIEPVARCIIPDLIGMGKSGKSGNGSYRLLDHYKYLTAWFELLNLPKKIIFVGHDWGSALAFHYAYEHQDRIKAIVHMESVVDVIESWMGWPDIEEELALIKSEEGEKMVLENNFFVETLLPSKIMRKLEPEEFAAYLEPFKEKGEVRRPTLSWPREIPLVKGGKPDVVQIVRNYNAYLRASDDLPKLFIESDPGFFYNAIVEGAKKFPNTEFVKVKGLHFLQEDAPDEMGKYIKSFVERVLKNEQEFGGGMLCCMRRTKQVEKNDEDQKISEGGPALFQSDMTFKIFIDGEVNGQKFTIVADGSSKFPHGDFNVHAVCETGKLPMSWKPICHLIQYGEPFFARYPDGISHFAQECFPEGLSIDRTVRFENDGTMTSHHTYELDDTCVVSRITVNCDGFQPDGPIMRDQLVDILPNETHMFPHGPNAVRQLAFIGFTTADGGLMMGHFDSKMTFNGSRAIEIPGPHFVTIITKQMRDTSDKRDHVCQREVAYAHSVPRITSAIGSDEDGGGWLEAAYQRFL
modifications: pRSET-RLuc8.6-KillerRed-Lead peptide
B3: RLuc8.6-KR: fusion protein of RLuc8.6 and KillerRed without lead peptide, 69 kDa (protein)
chain: MRGSHHHHHHGMASMTGGQQMGRDLYDDDDKDPMASKVYDPEQRKRMITGPQWWARCKQMNVLDSFINYYDSEKHAENAVIFLHGNATSSYLWRHVVPHIEPVARCIIPDLIGMGKSGKSGNGSYRLLDHYKYLTAWFELLNLPKKIIFVGHDWGSALAFHYAYEHQDRIKAIVHMESVVDVIESWMGWPDIEEELALIKSEEGEKMVLENNFFVETLLPSKIMRKLEPEEFAAYLEPFKEKGEVRRPTLSWPREIPLVKGGKPDVVQIVRNYNAYLRASDDLPKLFIESDPGFFYNAIVEGAKKFPNTEFVKVKGLHFLQEDAPDEMGKYIKSFVERVLKNEQEFGGGMLCCMRRTKQVEKNDEDQKISEGGPALFQSDMTFKIFIDGEVNGQKFTIVADGSSKFPHGDFNVHAVCETGKLPMSWKPICHLIQYGEPFFARYPDGISHFAQECFPEGLSIDRTVRFENDGTMTSHHTYELDDTCVVSRITVNCDGFQPDGPIMRDQLVDILPNETHMFPHGPNAVRQLAFIGFTTADGGLMMGHFDSKMTFNGSRAIEIPGPHFVTIITKQMRDTSDKRDHVCQREVAYAHSVPRITSAIGSDED
modifications: pRSET-RLuc8.6-KillerRed

Assays:
superoxide = assay: ROS generation: superoxide measured by decrease of DHE fluorescence; assay type: biochemical
Procedure: A ROS-generating effect of the RLuc8.6-KR protein was confirmed using 100 μL of buffer (50 mM HEPES-KOH, 24° C., pH 7.4) containing RLuc8.6-KR protein (final concentration: 10 μM), dihydroethidium (DHE, Sigma Aldrich, USA; final concentration of 100 μM) whose fluorescence intensity decreases in the presence of superoxide and a Co-h substrate solution. The rate of decrease in fluorescence intensity was measured at the excitation wavelength of 370 nm and the emission wavelength of 420 nm of DHE using a plate reader.
A ROS-generating effect of RLuc8.6-KR protein was measured using RLuc8.6-KR protein (final concentration: 10 μM) and DHE (final concentration: 100 μM) whose fluorescence intensity decreases in the presence of superoxide, and
Here, the active oxygen generation rate of each protein was measured using 100 μL of buffer (50 mM HEPES-KOH, 24° C., pH 7.4) containing FMN (final concentration: 150 μM) and a Co-h substrate solution (final concentration: 150 μM).
The rate of decrease in fluorescence intensity was measured at the excitation wavelength of 370 nm and the emission wavelength of 420 nm of DHE using a plate reader. In addition, the rate of decrease in fluorescence intensity was measured at the excitation wavelength of 380 nm and the emission wavelength of 430 nm of ADPA using a plate reader.
A ROS generation rate was measured using 100 μL of buffer (50 mM HEPES-KOH, 24° C., pH 7.4) containing the KR protein, RLuc8.6-KR protein (final concentration: 10 μM) and DHE (final concentration: 100 μM) whose fluorescence intensity decreases in the presence of superoxide.
A ROS generation rate was measured using 100 μL of buffer (50 mM HEPES-KOH, 24° C., pH 7.4) containing MS, RLuc8-MS (final concentration: 10 μM), DHE (final concentration: 100 μM) whose fluorescence intensity decreases in the presence of superoxide and FMN (final concentration: 150 μM).
After irradiation with light (referred to as +LED Light) at 10 mW/cm^2 for 30 minutes, the rate of decrease in fluorescence intensity was measured at the excitation wavelength of 370 nm and the emission wavelength of 420 nm of DHE using a plate reader.
A ROS generation rate was measured using 100 μL of buffer (50 mM HEPES-KOH, 24° C., pH 7.4) containing the KR protein, RLuc8.6-KR protein (final concentration: 10 μM), DHE (final concentration: 100 μM) whose fluorescence intensity decreases in the presence of superoxide and a Co-h substrate solution (final concentration: 150 μM).
A ROS generation rate was measured using 100 μL of buffer (50 mM HEPES-KOH, 24° C., pH 7.4) containing MS, RLuc8-MS (final concentration: 10 μM), DHE (final concentration: 100 μM) whose fluorescence intensity decreases in the presence of superoxide, FMN (final concentration: 150 μM) and a Co-h substrate solution (final concentration: 150 μM). The rate of decreasing fluorescence intensity was measured at an excitation wavelength of 370 nm and an emission wavelength of 420 nm of DHE using a plate reader.
A ROS generation rate was measured by reaction of 100 μL of buffer (50 mM HEPES-KOH, 24° C., pH 7.4) containing RLuc8.6-KR protein (final concentration: 10 μM), DHE (final concentration: 100 μM) whose fluorescence intensity decreases in the presence of superoxide, ROS scavenger (SOD (superoxide scavenger, final concentration 800U/ml), sodium azide (Singlet oxygen scavenger; final concentration: 100 mM) and D-mannitol (hydroxyl radical scavenger; final concentration: 100 mM), respectively) for 30 minutes. […]

MCF-7 = assay: Cell death with Co-h substrate by cell type (SYTOX Green or EthD-1/DAPI); assay type: cell-based, human; conditions: MCF-7, protein 10 μM, Co-h 150 μM for 5 minutes
Procedure: (§1) The cells were seeded at 5×10^5 cells/mL in 96-well plates (SPL Cell Culture Plate, 96 well (SPL, Cat #30096)), and cultured at 37° C. for 24 hours (overnight). After the culture for 24 hours, the cells were washed with FBS & phenol red-free media, and 100 μL of FBS & phenol red-free media containing a purified protein (final concentration: 10 μM) was added, followed by reaction at 37° C. for 24 hours.
(§2) Subsequently, the cells were washed with FBS & phenol red-free media, and 100 μL of FBS & phenol red-free media was added. 100 μL of FBS & Phenol red-free media (RPMI) containing a Co-h substrate solution (final concentration: 150 μM) was added, followed by reaction at 37° C. for 5 minutes.
(§3) After the reaction, 50 μL of SYTOX Green (final concentration: 261 nM) or 90 μL of ethidium homodimer (EthD-1) (final concentration 1×), which stains DNA of dead cells, was added, followed by reaction at 37° C. for 30 minutes. 10 μL of DAPI staining DNA of live cells was added, followed by reaction for 5 minutes. Cell death was confirmed by observing KillerRed, SYTOX Green, MiniSOG, EthD-1 and DAPI fluorescence using a confocal microscope.

MDA-MB-435 = assay: as above; assay type: cell-based, human; conditions: MDA-MB-435, protein 10 μM, Co-h 150 μM for 5 minutes
Procedure: as §1, §2, §3

Row | Molecule | superoxide generation rate after light irradiation (superoxide; 10 mW/cm^2, 30 minutes, no substrate, protein 10 μM, DHE) | superoxide generation rate by Co-h reaction after ROS scavenger treatment (superoxide; RLuc8.6-KR 10 μM, Co-h 150 μM 30 minutes, SOD 800 U/ml, sodium azide 100 mM or D-mannitol 100 mM) | cell death with Co-h substrate (MCF-7) | cell death with Co-h substrate (MDA-MB-435) | superoxide generation rate after Co-h substrate reaction (superoxide; Co-h 150 μM, 30-min reaction, without light irradiation, protein 10 μM, DHE) | reaction time with Co-h until which the superoxide generation rate increased, then constantly maintained (superoxide; protein 10 μM, Co-h 150 μM, DHE) [min] | Co-h concentration until which the superoxide generation rate increased, then constantly maintained (superoxide; protein 10 μM, DHE 100 μM, substrate reaction time 5 minutes) [µM]
1 | B1 | higher superoxide generation rate | lowest when SOD was treated |  |  |  |  | 
2 | B2 |  |  | killed them | killed them |  |  | 
3 | B3 |  |  | none of the six breast cancer cell lines were killed | none of the six breast cancer cell lines were killed | highest superoxide generation rate | 30 | 150
